Experimental data taken from the RNAGym collection of RNA variant scans (doi:10.7554/elife.90254).

B1: OR4K15 (parent)
chain: GUUAACGGUCAUAGGCCAUGGAAACUAGGAGCACCAUUUCGCUGCCAGUGAAGAAAUGAACAAAGAAAAUCUGGGCCAGGCAGGCAUCAAAAGAAAUAGUCUUGCGCUCAACCAGAAAGUCUGUAAUCAUUUUAAGGGUA

Variants of: B1
Assay: self-cleavage, relative activity (ratio to wild type); higher = more cleavage; in vitro, sequencing; the parent is a self-cleaving ribozyme

Point of comparison: GUUAACGGUCAUAGGCCAUGGAAACUAGGAGCGCCAUUUCGCUGCCAGUGAAGAAAUGAACAAAGAAAAUCUGGGCCAGGCAGGCAUCAAAAGAAAUAGUCUUGCGCUCAAGCAGAAAGUCUGUAAUCAUUUUAAGGGUA [A33G C112G], self-cleavage 0.02. Against it:
- GUUAACGGUCAUAGGCCAUGGAAACUAGGAGCGCCAUUUCGCUGCCAGUGAAGAAAUGAACAAAGAAAAUCUGGGCCAGGCUGGCAUCAAAAGAAAUAGUCUUGCGCUCAACCAGAAAGUCUGUAAUCAUUUUAAGGGUA [A33G A82U] — higher, 0.1
- GUUAACGGUCAUAGGCCAUGGAAACUAGGAGCGCCAUUUCGCUGCCAGUGAAGAAAUGAACAAAGAAAAUCUGGGCCAGGCAGGCAUCAAAAGAAAUAGUCUUGCGCUCAACUAGAAAGUCUGUAAUCAUUUUAAGGGUA [A33G C113U] — the same, 0.02
- GUUAACGGUCAUAGGCCAUGGAAACUAGGAGCGCCAUUUCGCUGCCAGUGAAGAAAUGAACAAAGAAAAUCUGGGUCAGGCAGGCAUCAAAAGAAAUAGUCUUGCGCUCAACCAGAAAGUCUGUAAUCAUUUUAAGGGUA [A33G C76U] — higher, 0.12
- GUUAACGGUCAUAGGCCAUGGAAACUAGGAGCGCCAUUUCGCUGCCAGUGAAGAAAUGAACAAAGAAAAUCUGGGCCAGGUAGGCAUCAAAAGAAAUAGUCUUGCGCUCAACCAGAAAGUCUGUAAUCAUUUUAAGGGUA [A33G C81U] — higher, 0.17
- GUUAACGGUCAUAGGCCAUGGAAACUAGGAGCGCCAUUUCGCUGCCAGUGAAGAAAUGAACAAAGAAAAUCUGGGCCAGGCAGGCAUCAAAAGAAAUAGUCUUGCGCUCAACCAGAAAGUCUGUUAUCAUUUUAAGGGUA [A33G A125U] — higher, 1.17
- GUUAACGGUCAUAGGCCAUGGAAACUAGGAGCGCCAUUUCGCUGCCAGUGAAGAAAUGAACAAAGAAAAUCUGGGCCAGGCAGGCAUCAAAAGAAAUAGUCUUGCGCUCAACCAGAAAGUCUGUGAUCAUUUUAAGGGUA [A33G A125G] — higher, 0.23
- GUUAACGGUCAUAGGCCAUGGAAACUAGGAGCGCCAUUUCGCUGCCAGUGAAGAAAUGAACAAAGAAAAUCUGGGCCGGGCAGGCAUCAAAAGAAAUAGUCUUGCGCUCAACCAGAAAGUCUGUAAUCAUUUUAAGGGUA [A33G A78G] — higher, 0.19
- GUUAACGGUCAUAGGCCAUGGAAACUAGGAGCGCCAUUUCGCUGCCAGUGAAGAAACGAACAAAGAAAAUCUGGGCCAGGCAGGCAUCAAAAGAAAUAGUCUUGCGCUCAACCAGAAAGUCUGUAAUCAUUUUAAGGGUA [A33G U57C] — higher, 0.64
- GUUAACGGUCAUAGGCCAUGGAAACUAGGAGCGCCAUUUCGCUGCCAGUGAAGAAAUGAACAAAGAAAGUCUGGGCCAGGCAGGCAUCAAAAGAAAUAGUCUUGCGCUCAACCAGAAAGUCUGUAAUCAUUUUAAGGGUA [A33G A69G] — higher, 0.28
- GUUAACGGUCAUAGGCCAUGGAAACUAGGAGCGCCAUUACGCUGCCAGUGAAGAAAUGAACAAAGAAAAUCUGGGCCAGGCAGGCAUCAAAAGAAAUAGUCUUGCGCUCAACCAGAAAGUCUGUAAUCAUUUUAAGGGUA [A33G U39A] — higher, 1.23
- GUUAACGGUCAUAGGCCAUGGAAACUAGGAGCGCCAUUCCGCUGCCAGUGAAGAAAUGAACAAAGAAAAUCUGGGCCAGGCAGGCAUCAAAAGAAAUAGUCUUGCGCUCAACCAGAAAGUCUGUAAUCAUUUUAAGGGUA [A33G U39C] — higher, 0.8
- GUUAACGGUCAUAGGCCAUGGAAACUAGGAGCGCCAUUUCGCUGCCAGUGAAGAAAUGAACAAAGAAAAUCUGGGCCAGGCAGGCAACAAAAGAAAUAGUCUUGCGCUCAACCAGAAAGUCUGUAAUCAUUUUAAGGGUA [A33G U87A] — higher, 0.66
- GUUAACGGUCAUAGGCCAUGGAAACUAGGAGCGCCAUUUCGCUGCCAGUGAAGAAAUGAACAAAGAAAAUCUGGGCCAGGCAGGCAUCAAAAGAAAUAGUCUUGCGCUCAGCCAGAAAGUCUGUAAUCAUUUUAAGGGUA [A33G A111G] — the same, 0.02
- GUUAACGGUCAUAGGCCAUGGAAACUAGGAGCGCCAUUUCGCUGCCAGUGAAGAAAUGAACAAAGAAAAUCUGGGCCAGGCAGGCAUCAAAAGAAAUAGUCUUGCGCUCAACCAGAAAGUCUGUAGUCAUUUUAAGGGUA [A33G A126G] — higher, 0.7
- GUUAACGGUCAUAGGCCAUGGAAACUAGGAGCGCCAUUUCGCUGCCAGUGAAGAAAUGAACAAAGAAAAUCUGGGCCAGGCAGGCAUCAAAAGAAAUAGUCUUGCACUCAACCAGAAAGUCUGUAAUCAUUUUAAGGGUA [A33G G106A] — higher, 0.04
- GUUAACGGUCAUAGGCCAUGGAAACUAGGAGCGCCAUUUCGCUGCCAGUGAAGAAAUGAACAAAGAAAAUCUGGGCCAGGCAGGCAUCAAAAGAAAUAGUCUUGCGCUCAACCAGAAUGUCUGUAAUCAUUUUAAGGGUA [A33G A118U] — higher, 0.47
- GUUAACGGUCAUAGGCCAUGGAAACUAGGAGCGACAUUUCGCUGCCAGUGAAGAAAUGAACAAAGAAAAUCUGGGCCAGGCAGGCAUCAAAAGAAAUAGUCUUGCGCUCAACCAGAAAGUCUGUAAUCAUUUUAAGGGUA [A33G C34A] — higher, 1.19
- GUUAACGGUCAUAGGCCAUGGAAACUAGGAGCGCCAUUUCGCUGCCAGUGAAGAAAUAAACAAAGAAAAUCUGGGCCAGGCAGGCAUCAAAAGAAAUAGUCUUGCGCUCAACCAGAAAGUCUGUAAUCAUUUUAAGGGUA [A33G G58A] — higher, 0.55
- GUUAACGGUCAUAGGCCAUGGAAACUAGGAGCGCCAUUUCGCUGCCAGUGAAGAAAUGAACAAAGAAAAUCUGGGCCAGGCAGGCAUCAAAAGAAAUAGUCUUGCGCUCAACCAGAUAGUCUGUAAUCAUUUUAAGGGUA [A33G A117U] — higher, 0.74
- GUUAACGGUCAUAGGCCAUGGAAACUAGGAGCGCCAUUUCGCUGCCAGUGAAGAAAUGAACAAAGAAAAUCUGGGCCAGGCAGGCAUCAAAAGAAAUAGUCUUGCGCUCAACCAGAGAGUCUGUAAUCAUUUUAAGGGUA [A33G A117G] — higher, 0.7
